From US7250488 (Kyowa Kirin, dated 2007)

Legend:
mouse β-catenin [1] = target: T1, mouse β-catenin (mouse, UniProt Q02248 2-781); test: immunoprecipitation with anti-ICAT antibody from mouse brain lysate, Western blotting with anti-β-catenin antibody
T1 construct: mature; also called ^35S-labeled β-catenin
T1 sequence (looked up): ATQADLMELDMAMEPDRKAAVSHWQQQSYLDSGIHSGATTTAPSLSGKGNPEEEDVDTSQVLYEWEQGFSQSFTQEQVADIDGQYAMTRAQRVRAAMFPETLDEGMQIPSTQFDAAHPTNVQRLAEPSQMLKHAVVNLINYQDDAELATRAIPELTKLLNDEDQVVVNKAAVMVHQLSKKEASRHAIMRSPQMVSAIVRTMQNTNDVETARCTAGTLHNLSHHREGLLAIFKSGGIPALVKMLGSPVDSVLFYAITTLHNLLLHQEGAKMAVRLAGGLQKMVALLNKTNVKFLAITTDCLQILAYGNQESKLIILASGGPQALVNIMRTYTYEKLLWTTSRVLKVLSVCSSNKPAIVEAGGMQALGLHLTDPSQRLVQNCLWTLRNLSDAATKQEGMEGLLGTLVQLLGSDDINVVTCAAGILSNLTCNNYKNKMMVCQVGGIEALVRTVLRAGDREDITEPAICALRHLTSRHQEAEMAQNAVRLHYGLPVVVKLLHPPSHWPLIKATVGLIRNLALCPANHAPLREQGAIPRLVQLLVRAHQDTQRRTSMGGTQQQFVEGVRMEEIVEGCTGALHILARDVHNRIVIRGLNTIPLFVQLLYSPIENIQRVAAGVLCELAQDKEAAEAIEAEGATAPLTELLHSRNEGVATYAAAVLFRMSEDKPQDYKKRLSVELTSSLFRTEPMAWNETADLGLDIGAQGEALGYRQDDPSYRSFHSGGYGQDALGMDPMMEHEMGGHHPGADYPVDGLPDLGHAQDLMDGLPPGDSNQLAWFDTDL
Protocol: In the experiment for the detection of ICAT with immunoprecipitation and Western blotting using mouse brain lysate in Example 6, immunoprecipitation was carried out with the anti-ICAT antibody, and then Western blotting was performed with the anti-β-catenin monoclonal antibody (Transduction Laboratory; animal used for the immunization is mouse) as a primary antibody for the detection. […] However, when, in this experiment, the anti-ICAT antibody, which had previously been reacted to GST/ICAT, was used in the immunoprecipitation, the band of β-catenin was not detected because of inhibition of immunoprecipitation.

[2] = target: T2, GAL4-β-catenin fusion protein (GAL4 BD fused with mβ-catenin arm, residues 141 to 664) (yeast; mouse, UniProt P04386 1-147; Q02248 141-664); test: yeast two-hybrid, β-galactosidase activity
T2 construct: Two-hybrid bait expressed in yeast HF7C; also called bait for mβ-catenin arm
Text: Specifically, both mouse fetal cDNA library for the two-hybrid system and plasmid GAL4-β-catenin prepared in (1) were introduced in yeast *Saccharomyces cerevisiae* HF7C strain (Clontech). HF7C strain is a yeast strain that is tryptophan-, leucine-, and histidine-auxotrophic, and, on the chromosome, has as a reporter gene a gene involved in histidine biosynthesis, HIS3, which has been ligated downstream of GAL1 promoter to which GAL4 BD can bind, as well as has of *E. coli*-derived β-galactosidase gene lazZ ligated downstream of a nucleotide sequence where GAL4 BD can bind (Gene, 212, 197 (1998)). A transformant containing both plasmid GAL4-β-catenin and cDNA clone for protein capable of binding to mβ-catenin arm and expresses the respective fusion proteins, is non-auxotrophic for histidine and is positive in β-galactosidase activity, because GAL4 BD is placed adjacent to GAL4 AD due the binding between mβ-catenin arm and the binding protein, the transcriptions of HIS3 gene and lacZ gene, downstream of the nucleotide sequence to which GAL4 BD binds, are activated. Four clones were finally selected, as colonies positive in β-galactosidase activity from 2.3 ×10^7 transformants which were grown on a medium without any of leucine, histidine, and tryptophan.
Each of these expression plasmids for fusion proteins of GAL4 AD and ICAT mutants was introduced together with the bait plasmid GAL4-β-catenin for mβ-catenin arm into yeast HF7C strain in the same manner as in Example 1, and then the binding of each ICAT mutant with β-catenin was evaluated based on the presence of β-galactosidase activity in the transformants.

[3] = target: T3, N-terminal portion of mouse β-catenin (residues 1 to 140), ^35S-labeled (mouse, UniProt Q02248 1-140); test: GST/ICAT pull-down of ^35S-labeled in vitro translated protein, autoradiography
T3 construct: range 1-140; Translated in vitro with ^35S-methionine
T3 sequence (looked up): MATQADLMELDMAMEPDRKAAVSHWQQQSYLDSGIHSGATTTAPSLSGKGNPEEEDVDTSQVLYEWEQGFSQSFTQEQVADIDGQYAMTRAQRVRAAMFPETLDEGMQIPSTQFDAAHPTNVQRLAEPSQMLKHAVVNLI
Protocol: (§1) The GST/ICAT-expressing E. coli as well as control GST-expressing E. coli prepared in Example 3 were cultured to obtain the respective bacterial lysates. Glutathione-Sepharose 4B (Amersham-Pharmacia Biotech) was added to these bacterial lysates, and […] or GST was adsorbed on it to isolate it. The GST/ICAT- or GST-adsorbed glutathione-Sepharose 4B was reacted to the above-mentioned ^35S-labeled β-catenin in buffer A containing 0.1% Triton X-100 at 4° C. for 2 hours. After the glutathione-Sepharose 4B was washed well with buffer A and then SDS-PAGE sample buffer was added thereto to elute the bound protein to the sample buffer. The eluate was used as a sample in SDS-PAGE in which the gel concentration was 15% and then the gel was visualized by autoradiography. […] Accordingly, it has been verified that GST/ICAT directly binds to β-catenin in vitro and that the site responsible for the binding to β-catenin is located within the ICAT moiety of GST/ICAT.
(§2) The region of β-catenin responsible for the binding with ICAT was determined as follows. DNA fragments encoding the region of armadillo domain of mouse β-catenin (residues 141 to 664 in the amino acid sequence), N-terminal portion (residues 1 to 140 in the amino acid sequence), and C-terminal portion (residues 665 to 782 in the amino acid sequence) were amplified by PCR. […]

[4] = target: T4, C-terminal portion of mouse β-catenin (residues 665 to 782), ^35S-labeled (mouse, UniProt Q02248 665-781); test: as above
T4 construct: range 665-782; Translated in vitro with ^35S-methionine
T4 sequence (looked up): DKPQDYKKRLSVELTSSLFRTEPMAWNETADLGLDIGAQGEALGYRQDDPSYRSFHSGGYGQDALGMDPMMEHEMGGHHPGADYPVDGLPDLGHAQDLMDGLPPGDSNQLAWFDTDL
Protocol: as §1, §2

mouse β-catenin [5] = target: T1, mouse β-catenin; test: GST fusion pull-down in vitro, as in Example 8
Protocol: as §1, with “Analysis of Binding Between ICAT and β-catenin (1) Detection of the Direct Binding In Vitro The direct binding of ICAT to β-catenin was verified as follows. ^35S-labeled β-catenin was translated and synthesized from mouse β-catenin mRNA in vitro by using ^35S-labeled methionine TNT-reticulocyte lysate system (Promega). The GST/ICAT-expressing” for “The GST/ICAT-expressing”, “of GST/ICAT. […]” for “of GST/ICAT.”

binding result [2] | Binder | also measured
no binding | RVLLMLRKMGSNLTASEEEFLRTYAGVVSSQLSQLPQHSID (other, not shown: large carriers, Mouse ICAT deletion mutant used as a two-hybrid prey; also called (g) ICAT(21-61)) [ICAT (21-61), GAL4 AD fusion] | –
no binding | ICAT(E37-39A), GAL4 AD fusion (other, not shown: large carriers, The glutamic acid residues 37, 38 and 39 are converted to alanine; Used as a two-hybrid prey; also called (j) ICAT(E37-39A)) MNREGAPGKSPEEMYIQQKVRVLLMLRKMGSNLTASAAAFLRTYAGVVSSQLSQLPQHSIDQGAEDVVMAFSRSETEDRRQ | –

More lines, now with the values behind:

Binder | binding result [2] | also measured
mouse ICAT (inhibitor of β-catenin and TCF) (other, Untagged full-length mouse ICAT (81 amino acids); It was tested expressed from pMKITneo in COS-7 and other animal cells, translated in vitro in reticulocyte lysate, and as the endogenous protein of mouse brain; also called 9-kDa protein) MNREGAPGKSPEEMYIQQKVRVLLMLRKMGSNLTASEEEFLRTYAGVVSSQLSQLPQHSIDQGAEDVVMAFSRSETEDRRQ | – | binding result (mouse β-catenin [1]): binds
MNREGAPGKSPEEMYIQQKVRVLLMLRKMGSNLTASEEEFL (other, not shown: large carriers, Mouse ICAT deletion mutant used as a two-hybrid prey; also called (b) ICAT(1-41)) [ICAT(1-41), GAL4 AD fusion] | no binding | –
ICAT(21-81), GAL4 AD fusion (other, not shown: large carriers, Mouse ICAT deletion mutant used as a two-hybrid prey; also called (d) ICAT(21-81)) RVLLMLRKMGSNLTASEEEFLRTYAGVVSSQLSQLPQHSIDQGAEDVVMAFSRSETEDRRQ | no binding | –
RTYAGVVSSQLSQLPQHSIDQGAEDVVMAFSRSETEDRRQ (other, not shown: large carriers, Mouse ICAT deletion mutant used as a two-hybrid prey; also called (e) ICAT(42-81)) [ICAT (42-81), GAL4 AD fusion] | no binding | –
GST/ICAT (fusion protein between GST and ICAT) (other, Mouse ICAT cDNA was subcloned between EcoRI/SalI of pGEX5X-1, so ICAT sits on the C-terminal side of GST; Expressed in E. coli; not shown: glutathione S-transferase (GST) as encoded by vector pGEX5X-1) MNREGAPGKSPEEMYIQQKVRVLLMLRKMGSNLTASEEEFLRTYAGVVSSQLSQLPQHSIDQGAEDVVMAFSRSETEDRRQ | – | binding result [3]: no binding; binding result [4]: no binding
ICAT(E37-39A) expressed as a GST fusion protein (other, Expressed in E. coli; not shown: glutathione S-transferase (GST); made in the same manner as GST/ICAT) MNREGAPGKSPEEMYIQQKVRVLLMLRKMGSNLTASAAAFLRTYAGVVSSQLSQLPQHSIDQGAEDVVMAFSRSETEDRRQ | – | binding result (mouse β-catenin [5]): no binding
